Experimental findings from patent US20210309722A1 are described below.

This assay addresses GLP-1 receptor. Nature of the assay: cell-based or functional assay.

With “native human GLP-1 (7-37) (from UniProt P01275 21-180) (peptide)”, the EC50, cAMP production (cAMP-inducible luciferase reporter) in HEK293 cells expressing GLP1R amounted to 3.1 pM.
